Measured values from publication PMC5814221.

Target: Growth arrest-specific protein 6 (GAS6) (UniProt Q63772)
Sequence of UniProt Q63772 (Q63772 28-674): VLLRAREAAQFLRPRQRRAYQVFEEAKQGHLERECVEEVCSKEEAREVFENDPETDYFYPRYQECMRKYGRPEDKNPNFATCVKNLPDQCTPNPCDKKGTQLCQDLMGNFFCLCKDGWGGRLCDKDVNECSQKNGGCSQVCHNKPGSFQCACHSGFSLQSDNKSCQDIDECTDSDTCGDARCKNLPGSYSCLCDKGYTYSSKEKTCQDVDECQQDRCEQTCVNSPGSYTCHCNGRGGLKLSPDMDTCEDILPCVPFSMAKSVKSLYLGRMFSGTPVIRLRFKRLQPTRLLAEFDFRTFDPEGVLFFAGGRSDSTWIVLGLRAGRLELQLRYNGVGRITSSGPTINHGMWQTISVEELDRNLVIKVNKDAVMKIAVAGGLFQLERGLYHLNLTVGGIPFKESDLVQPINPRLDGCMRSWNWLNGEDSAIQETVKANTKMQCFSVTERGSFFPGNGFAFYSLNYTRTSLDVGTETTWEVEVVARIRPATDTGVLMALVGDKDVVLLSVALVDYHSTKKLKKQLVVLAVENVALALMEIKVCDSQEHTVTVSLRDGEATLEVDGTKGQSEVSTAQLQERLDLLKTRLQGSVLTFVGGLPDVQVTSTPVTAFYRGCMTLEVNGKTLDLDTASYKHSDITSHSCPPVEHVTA

proliferation of RSC96 cells (WST-1) treated with AXL-Fc, percent decrease after 24 h, 48 h and 72 h (31.3%, 35.1%, 43.1%): 43.1 % decreased
Substance: AXL-Fc protein fragment (soluble form of AXL) (Fc fusion)
